Assay [1] addresses T1, human DMT1 (SLC11A2) (human, UniProt P49281-3 2-590, chemically biotinylated (EZ-Link NHS-PEG4-Biotinylation kit) for the SPR experiments).
T1 construct: human DMT1 (SLC11A2), UniProt P49281-3; Tags follow an HRV-3C site and were removed with HRV 3C protease; The same construct was used without biotin for the SEC of the complexes; source: HEK293S GnTI- cells, transient transfection, purified in DDM/CHS (StrepTactin, SEC); not shown: Myc, C-terminal, cleaved
T1 sequence: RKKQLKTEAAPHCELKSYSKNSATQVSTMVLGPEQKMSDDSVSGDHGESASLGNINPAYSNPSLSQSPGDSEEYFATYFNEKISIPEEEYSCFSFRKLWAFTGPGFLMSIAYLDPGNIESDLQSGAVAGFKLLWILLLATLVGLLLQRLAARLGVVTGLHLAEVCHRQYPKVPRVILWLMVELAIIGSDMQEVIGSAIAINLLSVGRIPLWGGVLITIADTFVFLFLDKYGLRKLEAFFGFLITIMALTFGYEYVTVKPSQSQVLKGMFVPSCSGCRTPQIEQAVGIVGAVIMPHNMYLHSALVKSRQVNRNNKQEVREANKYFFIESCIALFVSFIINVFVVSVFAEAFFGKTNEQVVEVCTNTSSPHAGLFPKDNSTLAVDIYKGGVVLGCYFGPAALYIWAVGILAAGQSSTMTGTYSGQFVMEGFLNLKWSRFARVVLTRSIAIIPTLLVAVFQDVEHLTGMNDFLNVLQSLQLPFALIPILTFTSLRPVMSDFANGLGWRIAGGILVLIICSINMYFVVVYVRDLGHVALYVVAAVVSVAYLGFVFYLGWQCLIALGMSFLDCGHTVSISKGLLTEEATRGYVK
As to the kind of experiment: SPR; chemically biotinylated DMT1 or NRAMP1 immobilised on a SAD200M chip (about 900 RU); sybodies injected at 7.8-500 nM, 10 °C, 30 µl/min; 10 mM HEPES pH 7.4, 150 mM NaCl, 0.04% DDM, 0.004% CHS, 0.1% BSA; fit to a 1:1 binding model. Conditions: both partners purified. Background: In SPR one partner is held on a chip, and binding of the other changes the refractive index at the surface.

Assay [2] has as its target T2, human DMT1 (SLC11A2) (Homo sapiens, DMT1 isoform 3 (P49281-3), UniProt P49281-3, chemically biotinylated (EZ-Link NHS-PEG4-Biotinylation kit) for the SPR assay; not for cryo-EM).
T2 construct: human DMT1 (SLC11A2), UniProt identifier P49281-3, codon-optimised synthetic gene in pcDXC3MS; The C-terminal HRV-3C site was cut, so residues of the cleavage site are left on the C-terminus; One construct was used for SPR (biotinylated, immobilised) and cryo-EM; source: HEK293S GnTI- cells, transient transfection, purified in DDM/CHS (StrepTactin, HRV 3C cleavage, SEC); not shown: Myc, …
Kind of assay: SPR; chemically biotinylated DMT1 or NRAMP1 immobilised on a SAD200M chip (~900 RU); sybodies injected at 7.8-500 nM, 10 °C, 30 µl/min; 10 mM HEPES pH 7.4, 150 mM NaCl, 0.04% DDM, 0.004% CHS, 0.1% BSA; single-site binding model. The settings on record: both partners purified.

B1: sybody Sb2^DMT1 (VHH)
VHH: QVQLVESGGGLVQAGGSLRLSCAASGFPVNAAWMHWYRQAPGKEREWVAAIRSAGHLTEYADSVKGRFTISRDNAKNTVYLQMNNLKPEDTAVYYCWVYVGESYHGQGTQVTVSA
notes: synthetic nanobody (sybody) selected against DMT1; the tags are surmised from the vector; Not resolved in the maps of PDB 9F6N and 9F6O
The Kd is the concentration at which binding is half-saturated. Low values mean tighter binding, high ones weaker binding. Regarding B1, the Kd in the assay with human DMT1 (SLC11A2) [1] turned out to be 0.048 µM.

B2: sybody Sb1^DMT1 (VHH)
VHH: QVQLVESGGGLVQAGGSLRLSCAASGFPVSRSEMYWYRQAPGKEREWVAAIHSIGWNTRYADSVKGRFTISRDNAKNTVYLQMNSLKPEDTAVYYCNVKDAGWFWTNYDYWGQGTQVTVSA
notes: synthetic nanobody (sybody) selected against DMT1; the tags are surmised from the vector
On to B2, for which, in the assay with human DMT1 (SLC11A2) [1], the Kd was 0.055 µM.

B3: Sb1^DMT1 (sybody, synthetic nanobody selected against DMT1) (VHH)
VHH: QVQLVESGGGLVQAGGSLRLSCAASGFPVSRSEMYWYRQAPGKEREWVAAIHSIGWNTRYADSVKGRFTISRDNAKNTVYLQMNSLKPEDTAVYYCNVKDAGWFWTNYDYWGQGTQVTVSA
notes: Selected from synthetic nanobody (sybody) libraries; The sybody model PDB 7P5V was only the starting model for building Sb1, not Sb1 itself
The molecule B3 showed a Kd in the assay with human DMT1 (SLC11A2) [2] of about 0.05 µM.

Source of the values: paper PMC11742427, “Structural basis for metal ion transport by the human SLC11 proteins DMT1 and NRAMP1” (Nature Communications, 2025).
